Laboratory results reported in patent publication US20260116951A1 (DUCENTIS BIOTHERAPEUTICS, published 2026).

Molecular target: T1, Recombinant Human CD200R, His-tagged (Creative Biomart CD200R1-320H) (human, UniProt Q8TD46 27-266)
T1 construct: Bought; also called human CD200 receptor; not shown: His tag
T1 sequence (looked up): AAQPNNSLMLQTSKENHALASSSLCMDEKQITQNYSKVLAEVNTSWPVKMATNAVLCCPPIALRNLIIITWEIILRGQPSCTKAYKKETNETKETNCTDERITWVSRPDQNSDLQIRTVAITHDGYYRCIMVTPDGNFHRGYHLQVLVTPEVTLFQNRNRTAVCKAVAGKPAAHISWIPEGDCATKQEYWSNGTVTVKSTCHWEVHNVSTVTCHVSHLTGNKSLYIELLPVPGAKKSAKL
Test: SPR (BIAcore), DS-118 captured (0.5 ug/mL), HuCD200R1 flowed at 100 nM to 6.25 nM, 25 C, 1:1 Binding model, run 1
Procedure: For human CD200 constructs: anti-human Fc (GE Healthcare) was covalently immobilized on a BIAcore CM5 sensor chip (Cytiva, BR100530) by amine coupling using a Cytiva kit (BR100839) following the manufacturer's instructions, targeting immobilization of 8,000-11,000 RU. CD200-Fc proteins were diluted to 0.5 μg/mL to 4 μg/mL in running Buffer (1×HBS-EP+pH7.4 (Cytiva BR100669), HEPES Buffered Saline pH 7.4 containing 3 mM EDTA and 0.05% v/v Surfactant P20) and flowed for 25 to 100 seconds at 10 μL/min over the immobilized Anti-Human IgG Fc, with a stabilization time of 60 seconds. Between 35 and 250 RUs of CD200-Fc were captured, with higher RUs used for cynomolgus CD200R binding experiments. […] Analysis temperature was 25° C. This was followed by regeneration of the surface with 30-90 second pulse of 3M MgCl₂ flowed at […] flow rate followed by stabilization of the surface with 60 second flow of running buffer.
For mouse CD200 constructs, muCD200R-Fc (Creative Biomart CD200R1-458M) diluted to 1 μg/mL in running buffer was flowed over the immobilized Anti-Human IgG Fc, with CD200 monomers serially diluted and flowed over captured CD200R. Other details were as above. Data analysis: experimental sensorgrams were analyzed in BIAevaluation software (GE Healthcare). The curves obtained were fitted to 1:1 Langmuir binding model by setting Rmax and RI as local parameters. Rate equations using standard parameters (e.g. ligand concentration, time) were used for iterative curve fitting. Closeness of fit was determined by algorithms provided by the manufacturer in the BIAevaluation software, and data accepted if the Chi² value was less than 10% of Rₘₐₓ, and the U value was less than or equal to 15.

B1: DS-118 (mutated human CD200-Fc fusion protein, K130Y, I131Y, IgG4 S228P Fc) (Fc fusion)
chain: QVQVVTQDEREQLYTPASLKCSLQNAQEALIVTWQKKKAVSPENMVTFSENHGVVIQPAYKDKINITQLGLQNSTITFWNITLEDEGCYMCLFNTFGFGYYSGTACLTVYVQPIVSLHYKFSEDHLNITCSATARPAPMVFWKVPRSGIENSTVTLSHPNGTTSVTSILHIKDPKNQVGKEVICQVLHLGTVTDFKQTVNKGPPCPPCPAPEFLGGPSVFLFPPKPKDTLMISRTPEVTCVVVDVSQEDPEVQFNWYVDGVEVHNAKTKPREEQFNSTYRVVSVLTVLHQDWLNGKEYKCKVSNKGLPSSIEKTISKAKGQPREPQVYTLPPSQEEMTKNQVSLTCLVKGFYPSDIAVEWESNGQPENNYKTTPPVLDSDGSFFLYSRLTVDKSRWQEGNVFSCSVMHEALHNHYTQKSLSLSLGK
notes: also called mutated CD200-Fc; mutant CD200-Fc
Kd: 1.21 nM | koff: 0.000278 s⁻¹ | kon: 230000 M⁻¹ s⁻¹
